{"source": "patent US20250296984A1", "about": "(THELPER, published 2025)", "binders": {"B1": {"name": "US28-14-4E4-1E8 (antibody, mouse IgG1, kappa, V domains shown)", "VH": "EVKLVESGGDLVKPGGSLKLSCAASGFTFSSYAMSWVRQTPEKRLEWVASISSGGRTYYPDSVKGRFTISRDNARNILYLQMSSLRSEDTAIYYCARGGTRHSYGNGFDYWGQGTTLTVSS", "VL": "QIVLSQSPTIMSASPGEKVTMTCSASSSVSYMHWYQQKSGTSPKRWIYDSSKLASGVPARFSGSGSGTSYSLTISSMEAEDAATYYCQQWTSNPPITFGAGTKLELKR"}, "B2": {"name": "US28-13-1H3-1A10 (antibody, mouse IgG1, kappa, V domains shown)", "VH": "EVKLVESGGVLVKPGGSLKFSCAASGFTLSSHALSWVRQTPEKRLEWVASISSRGRTYYPDSVKGRFTVSRDNARNILYLQVSSLRSEDTAMYYCTRGGTHYSYGNGFDFWGQGTTLTVSS", "VL": "B1 VL with S5T, T9A, A25V, S50T, S76T, T91S, S92N", "notes": "also called 14-1H3-1A10"}, "B3": {"name": "US28-13-1C10-1G9 (antibody, mouse IgG1, kappa, V domains shown)", "VH": "EVKLVESGGGLVKPGGSLKLSCAASGFTFSSYAMSWVRQTPEKRLEWVASISSGGSTYYPDSVKGRFTISRDNARNILYLQMSSLRSEDTAMYYCARGGSTMITTGLGFAYWGQGTLVTVSA", "VL": "B1 VL with S5T, T9A, S50T, T91S, I96L"}, "B4": {"name": "US28-13-1C10-1C10 (antibody, mouse IgG1, kappa, V domains shown)", "VH": "B2 VH with L29F", "VL": "B1 VL with S5T, T9A, A25V, S50T, S76T, T91S, S92N"}, "B5": {"name": "7B1F3-Myc (antibody, V domains shown)", "VH": "EVQLQQSGAELAKPGASVKMSCKASGYTFTNYWMHWVKQRPGQGLEWIGYVNPRTGYTEYNQKFKDKATLTADKSSRTAYMQLSSLTSEDSAVYSCARILNGTGFAYWGQGTLVTVSA", "VL": "DIVLTQSPSSLTVSVGEKFTMSCKSSQSLLYSSNQKNYLAWYQQKPGQSPKLLIYWASTRESGVPDRFTGSGSGTDFTLAISSVKPEDLAIYYCQQYYSFPLTFGAGTKLEIK"}, "B6": {"name": "4H3C3-Myc (antibody, V domains shown)", "VH": "QVQLQQSGAELAKPGASVKMSCKASGYTFTSYWMHWVKQRPGQGLEWIGYINPSTGYAEYNQKFKDKATLTADKSSSTAYMQLSSLTSEDSAVYYCARLRFGSSGFAYWGQGTLVTVSS", "VL": "not shown"}, "B7": {"name": "2F5B11-Myc (antibody, V domains shown)", "VH": "EVQLQESGAELAKPGASVKMSCKASGYTFSSYWIHWIKQRPGQGLEWIGYINPNTAYTEFNQKFMDKATLTADKSSSTAYMQLTSLTSEDSAVYYCARLRSDRTGFAYWGQGTLVTVSA", "VL": "not shown"}, "B8": {"name": "US28-4-7B1F3 (antibody, mouse IgG1, kappa, V domains shown)", "VH": "B5 VH", "VL": "DIVLTQSPSSLTVSVGEKFTMSCKSSQSLLYSSNQKNYLAWYQQKPGQSPKLLIYWASTRESGVPDRFTGSGSGTDFTLAISSVKPEDLAIYYCQQYYSFPLTFGAGTKLEIKR", "notes": "also called mouse 7B1F3; mouse7B1F3"}, "B9": {"name": "US28-4-4H3C3 (antibody, mouse IgG1, kappa, V domains shown)", "VH": "B6 VH", "VL": "not shown"}, "B10": {"name": "US28-4-2F5B11 (antibody, mouse IgG1, kappa, V domains shown)", "VH": "B7 VH", "VL": "not shown"}}, "note": "Changes are numbered by the printed parent chain. Where no end group is shown, it is not given here. The star is where a group is joined. Biotin = O=C1N[C@H]2[C@H](CS[C@H]2CCCCC(=O)*)N1"}
{"target": "T1, Bio-Peptide-1 (human cytomegalovirus (4N variant, e.g. …))", "T1 construct": "also called US28 ECD3 genotype 4N peptide", "T1 peptide": "Biotin-TKKNNQCMTDYDYLEVS", "experiment": "ELISA, Bio-Peptide-1 coated"}
{"binder": "B1", "absorbance": 2.99}
{"binder": "B2", "absorbance": 3}
{"binder": "B3", "absorbance": 3.11}
{"binder": "B4", "absorbance": 3.11}
{"target": "T2, US28 of HCMV strain DB fused to a C-terminal 6His tag (human cytomegalovirus (HCMV) strain DB, UniProt P69332 1-354)", "T2 chain": "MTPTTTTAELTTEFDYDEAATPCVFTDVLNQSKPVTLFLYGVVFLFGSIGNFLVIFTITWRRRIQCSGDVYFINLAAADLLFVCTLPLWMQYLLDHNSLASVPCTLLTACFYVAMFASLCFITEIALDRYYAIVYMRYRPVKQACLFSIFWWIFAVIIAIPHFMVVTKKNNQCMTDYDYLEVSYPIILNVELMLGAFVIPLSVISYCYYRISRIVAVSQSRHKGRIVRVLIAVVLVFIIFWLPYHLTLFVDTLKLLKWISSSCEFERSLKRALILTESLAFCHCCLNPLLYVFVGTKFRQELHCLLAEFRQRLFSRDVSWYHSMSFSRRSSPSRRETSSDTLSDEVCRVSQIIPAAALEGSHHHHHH", "experiment": "flow cytometry, processed data of FIG. 33"}
{"binder": "B5", "variation in binding relative to US28 as encoded by VHL/E": 0.64}
{"binder": "B6", "variation in binding relative to US28 as encoded by VHL/E": 0.59}
{"binder": "B7", "variation in binding relative to US28 as encoded by VHL/E": -0.04}
{"target": "T3, US28 of HCMV strain TB40/E fused to a C-terminal 6His tag (human cytomegalovirus (HCMV) strain …, UniProt P69332 1-354)", "T3 construct": "also called TB40/E form of US28", "T3 chain": "T2 chain with A8T, D15E, E18L, A19G, V24T, I49V, N170D", "experiment": "flow cytometry, processed data of FIG. 33"}
{"binder": "B5", "variation in binding relative to US28 as encoded by VHL/E": 0.14}
{"binder": "B6", "variation in binding relative to US28 as encoded by VHL/E": -0.16}
{"binder": "B7", "variation in binding relative to US28 as encoded by VHL/E": -0.92}
{"target": "T4, US28 of HCMV strain Merlin fused to a C-terminal 6His tag (human cytomegalovirus (HCMV) strain …, UniProt F5HF62 1-354)", "T4 construct": "also called Merlin-encoded US28", "T4 sequence": "T2 chain with A19D, N170D, S330G", "experiment": "flow cytometry, processed data of FIG. 33"}
{"binder": "B5", "variation in binding relative to US28 as encoded by VHL/E": 0.21}
{"binder": "B6", "variation in binding relative to US28 as encoded by VHL/E": -0.38}
{"binder": "B7", "variation in binding relative to US28 as encoded by VHL/E": 0.01}
{"target": "T2, US28 of HCMV strain DB fused to a …", "experiment": "flow cytometry, CHO-US28 against control CHO cells", "units": {"binding specificity comparative to the specificity displayed by VUN100": "fold"}}
{"binder": "B1", "binding specificity comparative to the specificity displayed by VUN100": 4.6}
{"binder": "B2", "binding specificity comparative to the specificity displayed by VUN100": 2.29}
{"binder": "B4", "binding specificity comparative to the specificity displayed by VUN100": 1.74}
{"target": "T2, US28 of HCMV strain DB fused to a …", "experiment": "flow cytometry, CHO-US28 against control CHO cells", "remark": "another data set of the same source", "units": {"binding specificity comparative to the specificity displayed by VUN100": "fold"}}
{"binder": "B8", "binding specificity comparative to the specificity displayed by VUN100": 1.67}
{"binder": "B9", "binding specificity comparative to the specificity displayed by VUN100": 3.35}
{"binder": "B10", "binding specificity comparative to the specificity displayed by VUN100": 4.21}
{"target": "T5, US28 of HCMV strain VHL/E fused to a C-terminal 6His tag (human cytomegalovirus (HCMV) strain …, UniProt P69332 1-354)", "T5 construct": "also called VHL/E-encoded US28", "T5 chain": "T2 chain with E18D, A19E, F25L, N170D, R267K, V346A", "experiment": "flow cytometry, processed data of FIG. 33; reference"}
{"binder": "B5", "variation in binding relative to US28 as encoded by VHL/E": 0}
{"binder": "B6", "variation in binding relative to US28 as encoded by VHL/E": 0}
{"binder": "B7", "variation in binding relative to US28 as encoded by VHL/E": 0}
{"target": "T2, US28 of HCMV strain DB fused to a …", "experiment": "flow cytometry, transfected HEK Phoenix cells, 6.76 nM"}
{"binder": "B5", "binding value (Preliminary Binding Data)": 0.91}
{"binder": "B6", "binding value (Preliminary Binding Data)": 0.37}
{"binder": "B7", "binding value (Preliminary Binding Data)": 1.04}
{"target": "T3, US28 of HCMV strain TB40/E fused to a …", "experiment": "flow cytometry, transfected HEK Phoenix cells, 6.76 nM"}
{"binder": "B5", "binding value (Preliminary Binding Data)": 0.42}
{"binder": "B6", "binding value (Preliminary Binding Data)": 0.14}
{"binder": "B7", "binding value (Preliminary Binding Data)": 0.57}
{"target": "T5, US28 of HCMV strain VHL/E fused to a …", "experiment": "flow cytometry, transfected HEK Phoenix cells, 6.76 nM"}
{"binder": "B5", "binding value (Preliminary Binding Data)": 0.37}
{"binder": "B6", "binding value (Preliminary Binding Data)": 0.16}
{"binder": "B7", "binding value (Preliminary Binding Data)": 1.08}
{"target": "T4, US28 of HCMV strain Merlin fused to a …", "experiment": "flow cytometry, transfected HEK Phoenix cells, 6.76 nM"}
{"binder": "B5", "binding value (Preliminary Binding Data)": 0.45}
{"binder": "B6", "binding value (Preliminary Binding Data)": 0.12}
{"binder": "B7", "binding value (Preliminary Binding Data)": 1.09}
